In series [1] the target is T1, 6xHis-DnaA (Mtb) (Mycobacterium tuberculosis) (UniProt P9WNW3).
T1 sequence: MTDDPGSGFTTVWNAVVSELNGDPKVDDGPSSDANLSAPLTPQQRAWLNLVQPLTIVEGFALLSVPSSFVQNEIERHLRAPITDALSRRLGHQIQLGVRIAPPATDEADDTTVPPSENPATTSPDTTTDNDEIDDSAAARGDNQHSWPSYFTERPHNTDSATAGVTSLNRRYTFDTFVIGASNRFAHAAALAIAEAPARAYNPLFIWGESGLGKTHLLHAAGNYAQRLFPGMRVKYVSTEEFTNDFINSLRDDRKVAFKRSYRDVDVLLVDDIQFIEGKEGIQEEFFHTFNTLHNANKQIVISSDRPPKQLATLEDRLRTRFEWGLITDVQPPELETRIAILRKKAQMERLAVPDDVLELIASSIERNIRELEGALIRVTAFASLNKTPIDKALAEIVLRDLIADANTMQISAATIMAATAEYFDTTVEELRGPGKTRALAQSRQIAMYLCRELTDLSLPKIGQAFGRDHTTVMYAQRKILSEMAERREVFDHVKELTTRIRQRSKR
Nature of the series: EMSA. (Mobility shift assays separate free from complexed probe on a gel.)

The subject of series [2] is 6xHis-DnaA (Mtb) (Mycobacterium tuberculosis). Briefly: EMSA.

As to “CCCTACACGACGCTCTTCCGACCCTCTCACCACTGCAGACAAAGTTATCCACAGACGCTATCAACAGTGGGGATGAATCACATGCGTGTGATTGAGTGACCAAAAGGTTGCTGGCACAGTAACGACCCGACCAGAATATGAATTCATTCTATCGGCGGCG (double strand) [Rv0010c-Rv0011c intergenic fragment]”, the binding entry in series [1] was “binds”.

Turning to oriC fragment, the dissociation constant Kd (in general, the concentration at which binding is half-saturated) in series [2] worked out at 70 nM.

Source of the values: article PMC7738170.
